Experimental findings from patent US20160115226A1 (SINGH MOLECULAR MEDICINE, published 2016) are described below.

For orientation: Kd means the equilibrium constant for the complex coming apart. For orientation: koff means a measure of how fast the partners let go of each other. A high value points to a short-lived complex. In general, kon refers to the rate constant with which the complex forms. A higher kon goes with faster complex formation.

Assay [1] deals with GST-STAT3 (16 kDa monovalent antigen, Creative BioMart #STAT3-1476H) (UniProt P40763).
Assay [2] shares this target. This is another data set of the same source.
Assay [3] has the same target. This is another data set of the same source.
Assay [4] deals with endogenous STAT3 in human cancer cell lysates (MDA-MB-231, PANC-1, DU145) (human, UniProt P40763 2-770).
endogenous STAT3 in human cancer cell lysates (MDA-MB-231, PANC-1, DU145), sequence (P40763 2-770 limits assumed): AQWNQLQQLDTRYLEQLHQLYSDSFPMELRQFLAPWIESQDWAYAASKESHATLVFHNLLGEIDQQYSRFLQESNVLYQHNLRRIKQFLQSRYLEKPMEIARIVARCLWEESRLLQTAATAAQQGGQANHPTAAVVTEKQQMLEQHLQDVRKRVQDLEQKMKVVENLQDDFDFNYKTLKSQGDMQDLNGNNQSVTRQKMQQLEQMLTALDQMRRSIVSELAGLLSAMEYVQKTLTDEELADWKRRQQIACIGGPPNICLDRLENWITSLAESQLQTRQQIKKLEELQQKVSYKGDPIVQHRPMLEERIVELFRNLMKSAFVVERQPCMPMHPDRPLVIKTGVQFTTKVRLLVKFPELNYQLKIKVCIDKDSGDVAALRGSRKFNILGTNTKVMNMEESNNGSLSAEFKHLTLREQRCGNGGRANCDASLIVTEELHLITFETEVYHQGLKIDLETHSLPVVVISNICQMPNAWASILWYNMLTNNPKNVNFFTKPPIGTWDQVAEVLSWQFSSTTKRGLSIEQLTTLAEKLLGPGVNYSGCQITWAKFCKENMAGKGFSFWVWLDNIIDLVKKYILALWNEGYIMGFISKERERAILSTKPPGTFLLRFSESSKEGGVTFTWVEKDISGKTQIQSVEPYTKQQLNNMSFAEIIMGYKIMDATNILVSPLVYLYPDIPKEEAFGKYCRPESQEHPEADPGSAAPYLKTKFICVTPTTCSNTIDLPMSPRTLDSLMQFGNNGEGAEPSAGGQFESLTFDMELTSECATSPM

Where two headings read alike, the source gives them in different places.

Take anti-KRAS (negative control) (VHH): in assay [1], the Kd stood at 4.32 nM, the koff turned out to be 0.000386 s⁻¹ and the kon stood at 89300 M⁻¹ s⁻¹. In assay [2], the Kd was 29.2 nM, the dissociation rate constant (koff) is 0.00048 s⁻¹ and the kon worked out at 16500 M⁻¹ s⁻¹. In assay [3], this molecule returned a Kd of 67.5 nM, a koff of 0.000801 s⁻¹ and a kon of 11900 M⁻¹ s⁻¹.

B1: STAT3 VHH13 (SEQ ID NO:3) produced and isolated from mammalian cells (VHH)
VHH: HVQLVESGGGSVQAGGSLRLSCAASGANGGRSCMGWFRQVPGKEREGVSGISTGGLITYYADSVKGRFTISQDNTKNTLYLQMNSLKPEDTAMYYCATSRFDCYRGSWFNRYMYNSWGQGTQVTVSS
Consider B1, for which the binding result in assay [4] is “binds”.
